Measurements taken from patent US20170174776A1.

Key:
[1] = biological target: fusion protein of the human transferrin receptor extracellular domain linked to human IgG1 Fc (human) (UniProt P02786); test: ELISA, coated human TfR ECD-Fc, pH 5.5
[2] = biological target: fusion protein of the human transferrin receptor extracellular domain linked to human IgG1 Fc (human) (UniProt P02786); test: ELISA, coated human TfR ECD-Fc, pH 7.4
[3] = biological target: fusion protein of the human transferrin receptor extracellular domain linked to human IgG1 Fc (human) (UniProt P02786); test: ELISA, coated human TfR ECD-Fc, pH 5.5 against pH 7.4

fusion protein of the human transferrin receptor extracellular domain linked to human IgG1 Fc (human), sequence (P02786 89-760): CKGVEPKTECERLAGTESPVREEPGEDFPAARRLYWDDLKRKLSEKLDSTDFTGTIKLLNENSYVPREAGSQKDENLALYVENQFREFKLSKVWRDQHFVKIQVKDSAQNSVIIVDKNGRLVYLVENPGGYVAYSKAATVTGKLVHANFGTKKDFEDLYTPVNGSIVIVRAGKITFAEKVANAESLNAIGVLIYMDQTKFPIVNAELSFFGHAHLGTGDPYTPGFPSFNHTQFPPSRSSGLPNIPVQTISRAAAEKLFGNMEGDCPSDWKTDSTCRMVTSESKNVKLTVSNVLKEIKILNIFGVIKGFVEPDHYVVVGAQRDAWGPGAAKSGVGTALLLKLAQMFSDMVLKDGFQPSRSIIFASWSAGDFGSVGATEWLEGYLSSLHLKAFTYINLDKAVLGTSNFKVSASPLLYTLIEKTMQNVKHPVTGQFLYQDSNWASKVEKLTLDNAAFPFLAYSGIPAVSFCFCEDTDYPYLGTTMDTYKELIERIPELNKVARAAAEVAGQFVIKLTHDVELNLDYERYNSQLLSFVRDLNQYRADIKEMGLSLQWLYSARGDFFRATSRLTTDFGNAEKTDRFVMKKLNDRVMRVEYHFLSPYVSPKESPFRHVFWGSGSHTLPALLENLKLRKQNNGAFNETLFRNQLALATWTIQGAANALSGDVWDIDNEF

Substance | EC50 [1] | EC50 [2] | ratio EC50 pH 5.5/EC50 pH 7.4 [3]
mAb MEM-75 (antibody) | 0.59 µg/mL | – | –
mAb OKT-9 (antibody) | 0.691 µg/mL | 0.065 µg/mL | 10.6
mAb MEM-189 (antibody) | > 1 µg/mL | 0.0642 µg/mL | > 15.6
